Data as given in article PMC6508891.
pKd: −log10 of the molar value.

What was measured:
[1] = molecular target: recombinant human VWF A1 domain with His tag (human); assay: SPR; BIAcore 3000; VWF A1A2A3 or single A domain amine-coupled to CM5; C3 or C4 perfused at 0-2.0 μM; 10 mM HEPES, 150 mM NaCl, 0.005% Tween-20, pH 7.4, 25°C, 10 µL/min; 1:1 Langmuir and shift baseline models
[2] = molecular target: recombinant human VWF A1A2A3 triple domain with His tag (human); assay: as above
[3] = molecular target: recombinant human VWF A3 domain with His tag (human); assay: as above
[4] = molecular target: purified human complement component C3 (human) (UniProt P01024); assay: SPR; BIAcore 3000; C3 or C4 amine-coupled to CM5; VWF A1A2A3 or single A domain perfused at 0-2.0 μM; 10 mM HEPES, 150 mM NaCl, 0.005% Tween-20, pH 7.4, 25°C, 10 µL/min; 1:1 Langmuir and shift baseline models
[5] = molecular target: purified human complement component C4 (human); assay: as above

| Substance | pKd [1] | pKd [2] | pKd [3] | pKd [4] | pKd [5] |
| --- | --- | --- | --- | --- | --- |
| recombinant human VWF A1 domain with His tag (domain or fragment) | – | – | – | < 5.70 | 6.30 |
| recombinant human VWF A1A2A3 triple domain with His tag (domain or fragment) | – | – | – | 6.63 | 6.28 |
| recombinant human VWF A3 domain with His tag (domain or fragment) | – | – | – | 7.00 | < 5.70 |

More lines, now with the values ahead:

| pKd [1] | pKd [2] | pKd [3] | pKd [4] | pKd [5] | Substance |
| --- | --- | --- | --- | --- | --- |
| 6.60 | 6.18 | 6.86 | – | – | purified human complement component C3 (from UniProt P01024 23-667; P01024 672-1663) (natural protein) |
| 6.86 | < 5.70 | < 5.70 | – | – | purified human complement component C4 (natural protein) |
